The text below walks through data of PMC8670721.

Series [1] deals with LIN28A (LIN28-TAT recombinant protein, Peprotech). As to the kind of experiment: EMSA.
Series [2] shares this test system. As to the kind of experiment: filter binding.

The Kd is the constant that tells how readily two partners part at equilibrium. For the substance biotin-labeled pre-let-7a, the Kd was 0.025 µM in series [1] and 0.01 µM in series [2].
